Changes are numbered by the printed parent chain. Blank lines part the entries; values can stand above or below the molecule they belong to.
Key:
[1] = target: human CLDN18.1 (Uniprot No:P56856) (human) (UniProt P56856); assay: FACS on BAF3-CLDN18.1 cells, FITC fluorescence; item B1; blank without antibody (C1) MFI 242
[2] = target: T1, human CLDN18.2 (NP_001002026.1) (human, UniProt P56856-2 1-261); assay: FACS on BAF3-CLDN18.2 cells, FITC fluorescence; item F7; blank without antibody (H7) MFI 178
T1 construct: whole, on cells; KATO III cells also served as target cells in the ADCC assay; also called Claudin18.2; Claudin-18 splice variant 2

[3] = target: human CLDN18.1 (Uniprot No:P56856) (human) (UniProt P56856); assay: FACS on BAF3-CLDN18.1 cells, FITC fluorescence; item A1; blank without antibody (C1) MFI 242
[4] = target: T1, human CLDN18.2 (NP_001002026.1); assay: FACS on BAF3-CLDN18.2 cells, FITC fluorescence; item G7; blank without antibody (H7) MFI 178
[5] = target: T1, human CLDN18.2 (NP_001002026.1); assay: FACS on 293T-CLDN18.2 cells, PE fluorescence; item B4; blank without antibody (E4) MFI 21.8
[6] = target: T1, human CLDN18.2 (NP_001002026.1); assay: FACS on 293T-CLDN18.2 cells, PE fluorescence; item D4; blank without antibody (E4) MFI 21.8
[7] = target: T1, human CLDN18.2 (NP_001002026.1); assay: FACS on 293T-CLDN18.2 cells, PE fluorescence; item A4; blank without antibody (E4) MFI 21.8
[8] = target: T1, human CLDN18.2 (NP_001002026.1); assay: cell-based binding FACS on BAF3-CLDN18.2 cells, MFI against Con of mAb, nM is the unit of the x axis; curve lies in a bundle of overlapping curves reaching MFI about 5000-6000
Description: (§1) The BAF3-CLDN18.2, BAF3-CLDN18.1 and BAF3 cells were harvested, washed twice and re-suspended in phosphate buffered saline (PBS) containing 2% v/v Fetal Bovine Serum (FACS buffer), BAF3 cells were used here as blank control. The cells, 1×10⁵ per well, were incubated in 96 well-plates with 100 μl serially diluted antibodies or controls (starting from 10 μg/mL, 5-fold serial dilution) in FACS buffer for 50 minutes on ice. […] Following an incubation of 50 minutes at 4° C. in dark, cells were washed three times and re-suspended in FACS buffer. Fluorescence was measured using a Becton Dickinson FACS Canto II-HTS equipment, and the MFI (mean fluorescence intensity) was plotted against antibody concentration. Data was analyzed using Graphpad Prism and EC₅₀ values were reported.

[9] = target: T1, human CLDN18.2 (NP_001002026.1); assay: cell-based binding FACS on BAF3-CLDN18.2 cells, MFI against Con of mAb, nM is the unit of the x axis; curve lies in a bundle of close curves reaching MFI about 5300-5900
Description: as §1

[10] = target: T1, human CLDN18.2 (NP_001002026.1); assay: cell-based binding FACS on BAF3-CLDN18.2 cells, MFI against Con of mAb (nM)
Description: as §1

[11] = target: T1, human CLDN18.2 (NP_001002026.1); assay: cell-based blocking FACS on BAF3-CLDN18.2 cells; competitor: biotin labeled Zolbetuximab, SA-PE detection, nM is the unit of the x axis; signal falls from about 800-870 to about 110 at the last point
Description: The anti-CLDN18.2 antibodies of the disclosure, and the controls were diluted with FACS buffer starting from 10 μg/mL with 5-fold serial dilution. BAF3-CLDN18.2 cells were harvested from cell culture flasks at the log phase, washed twice and re-suspended in PBS containing 2% v/v Fetal Bovine Serum (FACS buffer). […] Then the cells were washed twice with FACS buffer, added with 100 μl/well SA-PE (1:200 dilution in FACS buffer, Cat #:016-110-084, Jackson Immunoresearch), and incubated for 40 minutes at 4° C. in dark. Cells were washed twice and re-suspended in FACS buffer. Fluorescence was measured using a Becton Dickinson FACS Canto II-HTS equipment. Data was analyzed using Graphpad Prism and IC₅₀ values were reported.

[12] = target: T1, human CLDN18.2 (NP_001002026.1); assay: cell-based binding FACS on BAF3-CLDN18.2 cells, MFI against Con of mAb, nM is the unit of the x axis; the three mouse curves overlap and level off near MFI 2300-2400
Description: as §1

[13] = target: T1, human CLDN18.2 (NP_001002026.1); assay: cell-based binding FACS on BAF3-CLDN18.2 cells; y axis unlabelled, nM is the unit of the x axis; the three chimeric curves run close together and reach about 7200-7700 at the last point without a clear plateau
Description: as §1

Molecule: anti-CLDN18 antibody (Cat #ab203563, Abeam)
MFI at 500 ng/ml [1]: 4020
MFI at 1000 ng/ml [2]: 3340
MFI at 1000 ng/ml [3]: 5340
MFI at 500 ng/ml [4]: 3020

Molecule: hIgG (antibody)
MFI at 2500 ng/ml [5]: 28.7
MFI at 156.25 ng/ml [6]: 21.4
MFI at 10000 ng/ml [7]: 26.9

B1: huE1B1B8C7-V2 (antibody, human IgG1, kappa, V domains shown)
VH: QVQLVQSGAEVKKPGASVKVSCKASGYSFTNYWVNWVRQAPGQGLEWIGMVHPSGSETRLNQQFKDKATLTVDTSTSTVYMELSSLRSEDTAVYYCARVWSGNAFDYWGQGTLVTVSS
VL: DIVMTQSPDSLAVSLGERATINCLSSQSLLASGNQRNYLTWYQQKPGQPPKLLIYWASTRDSGVPDRFTGSGSGVDFTLTISSVQAEDVAVYYCQNGFSFPFTFGQGTKLEIKR
notes: Humanized, human IgG1/kappa; X positions as numbered in CLM-00003 and CLM-00004
EC50 [8]: 5.18 nM

B5: huE1B1B8C7-V5 (antibody, human IgG1, kappa, V domains shown)
VH: B1 VH with K67R
VL: B1 VL
notes: as for B1
EC50 [8]: 4.33 nM

B6: huE1B1B8C7-V4 (antibody, human IgG1, kappa, V domains shown)
VH: B1 VH with I48M
VL: B1 VL
notes: as for B1
EC50 [8]: 3.63 nM

B10: huE1B1B8C7-V1 (antibody, human IgG1, kappa, V domains shown)
VH: B1 VH with T74K, V79A
VL: B1 VL
notes: as for B1
EC50 [8]: 3.32 nM

B11: huE1B1B8C7-V3 (antibody, human IgG1, kappa, V domains shown)
VH: B1 VH with S28T
VL: B1 VL
notes: as for B1
EC50 [8]: 3.7 nM

B16: huE1B1B8C7-V8 (antibody, human IgG1, kappa, V domains shown)
VH: B1 VH with V72R
VL: B1 VL
notes: as for B1
binding result [10]: binds

B18: mouse antibody E1B1B8C7 (antibody, V domains shown)
VH: QVQLQQPGAELVRPGTSVKLSCKASGYSFTNYWVNWVKQRPGQGLEWIGMVHPSGSETRLNQQFKDKATLTVDKSSNTAYMQLNRPTSEDSAVYYCARVWSGNAFDYWGQGTTLIVSS
VL: DIVMTQSPSSLTVTAGEKVTLNCLSSQSLLNSGNQRNYLTWYQQKPGQPPKLLIYWASTRDSGVPDRFTGGGSGVDFTLTIYRVQAEDLAFYYCQNGFSFPFTFGSGTKLEMK
notes: Mouse hybridoma monoclonal antibody; also called mouse E1B1B8C7
IC50 [11]: 6.86 nM
EC50 [12]: 2.24 nM

B19: chE1B1B8C7-V2 (antibody, human IgG1, kappa, V domains shown)
VH: B18 VH
VL: DIVMTQSPSSLTVTAGEKVTLNCLSSQSLLNAGNQRNYLTWYQQKPGQPPKLLIYWASTRDSGVPDRFTGGGSGVDFTLTIYRVQAEDLAFYYCQNGFSFPFTFGSGTKLEMKR
notes: Chimeric human IgG1/kappa; also called chimeric antibody chE1B1B8C7-V2
EC50 [13]: 3.91 nM

B22: chE1B1B8C7-V3 (antibody, human IgG1, kappa, V domains shown)
VH: B18 VH
VL: B19 VL with A32E
notes: Chimeric human IgG1/kappa; also called chimeric antibody chE1B1B8C7-V3
EC50 [13]: 7.79 nM

B23: chE1B1B8C7-V1 (antibody, human IgG1, kappa, V domains shown)
VH: B18 VH
VL: B19 VL with N31A, A32S
notes: Chimeric human IgG1/kappa; also called chimeric antibody chE1B1B8C7-V1
EC50 [13]: 6.19 nM
EC50 [8]: 3.08 nM

Other lines, results leading:

EC50 [9]: 3.06 nM
B2: huE1B1B8C7-V12 (antibody, human IgG1, kappa, V domains shown)
VH: B1 VH with T74K, V79A
VL: B1 VL with V75T

EC50 [9]: 5.39 nM
B3: huE1B1B8C7-V11 (antibody, human IgG1, kappa, V domains shown)
VH: B1 VH with S28T
VL: B1 VL with T69S
notes: as for B1

EC50 [8]: 3.89 nM
B4: huE1B1B8C7-V7 (antibody, human IgG1, kappa, V domains shown)
VH: B1 VH with L70M
VL: B1 VL
notes: as for B1

EC50 [8]: 3.1 nM
B7: huE1B1B8C7-V6 (antibody, human IgG1, kappa, V domains shown)
VH: B1 VH with A68V
VL: B1 VL
notes: as for B1

EC50 [8]: 2.31 nM
B8: huE1B1B8C7-V9 (antibody, human IgG1, kappa, V domains shown)
VH: B1 VH with T74K, V79A
VL: B1 VL with T69S
notes: as for B1

EC50 [9]: 5.74 nM
B9: huE1B1B8C7-V10 (antibody, human IgG1, kappa, V domains shown)
VH: B1 VH
VL: B1 VL with T69S
notes: as for B1

EC50 [9]: 4.03 nM
B12: huE1B1B8C7-V14 (antibody, human IgG1, kappa, V domains shown)
VH: B1 VH with S28T
VL: B1 VL with V75T
notes: as for B1

EC50 [9]: 4.87 nM
B13: huE1B1B8C7-V17 (antibody, human IgG1, kappa, V domains shown)
VH: B1 VH with S28T
VL: B1 VL with V84L
notes: as for B1

EC50 [9]: 2.76 nM
B14: huE1B1B8C7-V15 (antibody, human IgG1, kappa, V domains shown)
VH: B1 VH with T74K, V79A
VL: B1 VL with V84L
notes: as for B1

EC50 [9]: 3.29 nM
B15: huE1B1B8C7-V16 (antibody, human IgG1, kappa, V domains shown)
VH: B1 VH
VL: B1 VL with V84L
notes: as for B1

EC50 [9]: 3.46 nM
B17: huE1B1B8C7-V13 (antibody, human IgG1, kappa, V domains shown)
VH: B1 VH
VL: B1 VL with V75T
notes: as for B1

IC50 [11]: 5.29 nM
EC50 [12]: 1.76 nM
B20: mouse antibody E1A1F4B5 (antibody, V domains shown)
VH: B18 VH with V51I, Q63R, K65R, A68T, K74R
VL: B18 VL with L24M, R36K, Y93F
notes: Mouse hybridoma monoclonal antibody purified on Protein A

IC50 [11]: 4.38 nM
EC50 [12]: 1.49 nM
B21: mouse antibody E1H4C3E5 (antibody, V domains shown)
VH: B18 VH with V34M, V51I, T58S, Q63K, E89A
VL: B18 VL with N22S, L24M, R36K, Y55F, V75T, D76L, K113R
notes: Mouse hybridoma monoclonal antibody
